This is an account of results in article PMC2949506.

Test [1] addresses Elongin BC complex (Homo sapiens) (UniProt Q15370). Kind of test: ITC. The following applies: cited from earlier work.
For test [2], the target named is Elongin BC complex (human Elongin B with Elongin C residues 17-122) (human) (UniProt Q15370). Kind of test: HDX-MS.
Test [3] addresses HIV-1 Vif (HXB2) L145A (HIV-1 (HXB2)) (UniProt P69723). Briefly: pull-down.

As a reminder, the Kd is the equilibrium constant for the complex coming apart. With Vif 139-192 (from UniProt P69722), the dissociation constant (Kd) in test [1] is 0.0004 µM.

What is called stoichiometry N is the number of molecules, sites or subunits per partner or assembly. For the substance “Full length HIV-1 Vif (HXB2) (from UniProt P69723) (natural protein)”, in test [2], the Kd is 1.9 µM and the stoichiometry N stood at 1.

Substance “HIV-1 Vif (HXB2) L145A (from UniProt P69723) (natural protein)” yielded a Kd in test [2] of 3.9 µM.

For the substance Vif 130-180 (from UniProt P69722), the Kd in test [1] was 1.19 µM.

In turn, “Elongin BC complex (human Elongin B with Elongin C residues 17-122) (from UniProt Q15370 1-118)” came in with a fold reduction of binding versus wt Vif in test [3] of 3 fold.
